In the supplement of paper PMC10065799, “High-throughput profiling of sequence recognition by tyrosine kinases and SH2 domains using bacterial peptide display” (eLife, 2023):

How the values were obtained:
EPHB1 = EPHB1 (UniProt P54762); assay: phosphorylation enrichment, bacterial display (enrichment ratio); higher = better substrate or ligand; peptides without Tyr show the background
c-Abl (mouse) = assay: as above
Jak2 = Jak2 (UniProt O60674); assay: as above
FGFR3 = FGFR3 (UniProt P22607); assay: as above
MERTK = MERTK (UniProt Q12866); assay: as above
FGFR1 = FGFR1 (UniProt P11362); assay: as above
Hck = Hck (UniProt P08631); assay: as above
AncSZ = assay: as above
Fyn = Fyn (UniProt P06241); assay: as above
EPHB2 = EPHB2 (UniProt P29323); assay: as above
Fes = Fes (UniProt P07332); assay: as above
c-Src = assay: as above
Fer (mouse) = assay: as above
SHP2-C SH2 = assay: SH2 binding enrichment of the phosphorylated peptide, bacterial display (enrichment ratio); higher = better substrate or ligand; peptides without Tyr show the background
c-Src SH2 = assay: as above
Grb2 SH2 = Grb2 SH2 (UniProt P62993); assay: as above
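Throughout, for SH2 binding enrichment of the phosphorylated peptide, bacterial display: peptide library displayed on the E. coli surface as eCPX fusions, selected cells deep-sequenced, score is each peptide's frequency after selection divided by its frequency in the input.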
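Throughout, for phosphorylation enrichment, bacterial display: 11-residue human phosphosite peptides and single-mutation variants displayed on the E. coli surface, counted by deep sequencing, each peptide's frequency after selection divided by its frequency in the unselected input library; frequency after pTyr selection over input frequency; kinase dosed for 20-30% of maximal phosphorylation in three min.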

Chain of Hck (P08631 whole entry, looked up): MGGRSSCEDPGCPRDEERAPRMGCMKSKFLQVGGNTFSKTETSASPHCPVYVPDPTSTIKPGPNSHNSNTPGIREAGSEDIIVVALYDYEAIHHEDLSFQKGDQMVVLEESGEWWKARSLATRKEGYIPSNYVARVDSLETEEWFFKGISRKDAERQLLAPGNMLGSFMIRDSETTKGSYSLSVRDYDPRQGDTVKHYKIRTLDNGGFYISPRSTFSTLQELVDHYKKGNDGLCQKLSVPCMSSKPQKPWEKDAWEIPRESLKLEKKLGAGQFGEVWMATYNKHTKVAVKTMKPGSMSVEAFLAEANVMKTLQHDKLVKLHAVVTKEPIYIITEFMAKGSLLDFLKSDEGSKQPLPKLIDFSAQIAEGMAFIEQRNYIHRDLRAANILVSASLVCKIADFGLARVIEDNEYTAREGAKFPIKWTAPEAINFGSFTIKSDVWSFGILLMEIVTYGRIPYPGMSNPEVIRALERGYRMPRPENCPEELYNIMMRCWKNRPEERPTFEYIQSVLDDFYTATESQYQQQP
Chain of FGFR3 (P22607 whole entry, looked up): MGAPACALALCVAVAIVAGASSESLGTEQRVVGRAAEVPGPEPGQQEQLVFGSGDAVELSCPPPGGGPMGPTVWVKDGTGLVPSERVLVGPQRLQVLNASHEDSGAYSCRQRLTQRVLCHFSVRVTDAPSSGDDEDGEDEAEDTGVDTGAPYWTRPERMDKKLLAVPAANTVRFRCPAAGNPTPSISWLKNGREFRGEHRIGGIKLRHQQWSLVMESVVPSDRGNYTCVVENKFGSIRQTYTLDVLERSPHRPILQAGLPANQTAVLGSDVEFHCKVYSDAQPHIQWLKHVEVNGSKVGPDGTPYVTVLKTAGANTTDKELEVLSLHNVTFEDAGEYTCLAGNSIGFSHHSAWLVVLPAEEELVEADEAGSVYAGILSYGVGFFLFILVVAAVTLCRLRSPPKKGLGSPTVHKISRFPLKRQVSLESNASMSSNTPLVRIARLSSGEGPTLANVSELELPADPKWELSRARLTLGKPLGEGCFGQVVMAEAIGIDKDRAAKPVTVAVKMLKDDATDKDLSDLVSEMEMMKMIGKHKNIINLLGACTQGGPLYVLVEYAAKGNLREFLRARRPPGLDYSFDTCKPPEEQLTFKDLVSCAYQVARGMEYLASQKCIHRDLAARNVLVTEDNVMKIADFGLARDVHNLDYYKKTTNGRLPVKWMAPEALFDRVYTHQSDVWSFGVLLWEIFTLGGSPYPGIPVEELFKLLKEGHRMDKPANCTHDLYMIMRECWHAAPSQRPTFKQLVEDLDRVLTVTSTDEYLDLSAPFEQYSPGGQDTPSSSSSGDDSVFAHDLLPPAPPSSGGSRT
Chain of Jak2 (O60674 whole entry, looked up): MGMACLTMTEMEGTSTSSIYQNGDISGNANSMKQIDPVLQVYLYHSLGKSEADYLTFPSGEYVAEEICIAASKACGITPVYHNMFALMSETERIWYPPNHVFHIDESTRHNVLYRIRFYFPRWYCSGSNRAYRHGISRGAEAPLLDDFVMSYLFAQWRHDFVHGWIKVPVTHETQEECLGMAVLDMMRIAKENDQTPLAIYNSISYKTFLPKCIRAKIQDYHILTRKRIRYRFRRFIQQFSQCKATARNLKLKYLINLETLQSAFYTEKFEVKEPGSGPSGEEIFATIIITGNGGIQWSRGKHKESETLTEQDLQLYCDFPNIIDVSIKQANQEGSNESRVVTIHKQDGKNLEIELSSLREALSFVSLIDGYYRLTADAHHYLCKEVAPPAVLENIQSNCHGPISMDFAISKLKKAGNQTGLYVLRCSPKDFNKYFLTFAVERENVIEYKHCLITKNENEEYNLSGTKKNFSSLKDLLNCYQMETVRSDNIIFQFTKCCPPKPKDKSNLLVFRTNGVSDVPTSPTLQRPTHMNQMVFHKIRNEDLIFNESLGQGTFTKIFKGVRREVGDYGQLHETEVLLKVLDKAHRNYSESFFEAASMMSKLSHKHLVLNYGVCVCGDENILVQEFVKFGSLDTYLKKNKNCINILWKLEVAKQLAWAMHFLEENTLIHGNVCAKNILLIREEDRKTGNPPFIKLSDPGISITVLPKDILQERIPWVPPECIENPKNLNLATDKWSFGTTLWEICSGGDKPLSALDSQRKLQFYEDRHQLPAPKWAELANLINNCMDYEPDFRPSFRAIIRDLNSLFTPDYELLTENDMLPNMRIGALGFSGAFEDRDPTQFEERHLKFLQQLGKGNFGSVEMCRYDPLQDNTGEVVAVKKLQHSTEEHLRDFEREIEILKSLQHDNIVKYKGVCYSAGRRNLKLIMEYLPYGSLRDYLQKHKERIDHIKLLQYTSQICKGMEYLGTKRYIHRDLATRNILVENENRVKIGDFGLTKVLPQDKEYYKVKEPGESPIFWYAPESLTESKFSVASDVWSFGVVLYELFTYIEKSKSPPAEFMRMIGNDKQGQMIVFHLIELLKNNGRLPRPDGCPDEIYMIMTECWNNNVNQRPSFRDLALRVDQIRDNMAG
Chain of Fes (P07332 whole entry, looked up): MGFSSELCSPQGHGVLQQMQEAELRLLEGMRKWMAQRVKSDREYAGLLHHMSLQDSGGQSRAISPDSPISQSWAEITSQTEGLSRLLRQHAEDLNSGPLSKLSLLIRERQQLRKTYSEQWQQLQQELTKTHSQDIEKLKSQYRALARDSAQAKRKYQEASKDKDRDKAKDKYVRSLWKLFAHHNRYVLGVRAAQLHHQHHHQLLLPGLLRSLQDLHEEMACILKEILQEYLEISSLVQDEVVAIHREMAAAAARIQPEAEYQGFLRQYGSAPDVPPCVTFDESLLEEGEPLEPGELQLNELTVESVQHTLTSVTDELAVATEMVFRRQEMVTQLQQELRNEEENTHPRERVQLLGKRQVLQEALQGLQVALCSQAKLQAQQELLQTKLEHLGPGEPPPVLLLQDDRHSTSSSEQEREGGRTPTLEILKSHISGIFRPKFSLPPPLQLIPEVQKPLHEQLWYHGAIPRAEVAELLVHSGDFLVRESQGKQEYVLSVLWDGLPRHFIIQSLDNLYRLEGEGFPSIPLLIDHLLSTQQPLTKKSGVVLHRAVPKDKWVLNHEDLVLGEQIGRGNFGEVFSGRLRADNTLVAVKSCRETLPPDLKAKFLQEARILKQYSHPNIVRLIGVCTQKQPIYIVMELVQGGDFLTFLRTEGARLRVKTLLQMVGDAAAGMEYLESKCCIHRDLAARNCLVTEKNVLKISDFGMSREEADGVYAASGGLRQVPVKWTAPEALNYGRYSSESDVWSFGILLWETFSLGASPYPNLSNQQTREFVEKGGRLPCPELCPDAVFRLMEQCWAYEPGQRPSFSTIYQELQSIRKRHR
Chain of EPHB2 (P29323 whole entry, looked up): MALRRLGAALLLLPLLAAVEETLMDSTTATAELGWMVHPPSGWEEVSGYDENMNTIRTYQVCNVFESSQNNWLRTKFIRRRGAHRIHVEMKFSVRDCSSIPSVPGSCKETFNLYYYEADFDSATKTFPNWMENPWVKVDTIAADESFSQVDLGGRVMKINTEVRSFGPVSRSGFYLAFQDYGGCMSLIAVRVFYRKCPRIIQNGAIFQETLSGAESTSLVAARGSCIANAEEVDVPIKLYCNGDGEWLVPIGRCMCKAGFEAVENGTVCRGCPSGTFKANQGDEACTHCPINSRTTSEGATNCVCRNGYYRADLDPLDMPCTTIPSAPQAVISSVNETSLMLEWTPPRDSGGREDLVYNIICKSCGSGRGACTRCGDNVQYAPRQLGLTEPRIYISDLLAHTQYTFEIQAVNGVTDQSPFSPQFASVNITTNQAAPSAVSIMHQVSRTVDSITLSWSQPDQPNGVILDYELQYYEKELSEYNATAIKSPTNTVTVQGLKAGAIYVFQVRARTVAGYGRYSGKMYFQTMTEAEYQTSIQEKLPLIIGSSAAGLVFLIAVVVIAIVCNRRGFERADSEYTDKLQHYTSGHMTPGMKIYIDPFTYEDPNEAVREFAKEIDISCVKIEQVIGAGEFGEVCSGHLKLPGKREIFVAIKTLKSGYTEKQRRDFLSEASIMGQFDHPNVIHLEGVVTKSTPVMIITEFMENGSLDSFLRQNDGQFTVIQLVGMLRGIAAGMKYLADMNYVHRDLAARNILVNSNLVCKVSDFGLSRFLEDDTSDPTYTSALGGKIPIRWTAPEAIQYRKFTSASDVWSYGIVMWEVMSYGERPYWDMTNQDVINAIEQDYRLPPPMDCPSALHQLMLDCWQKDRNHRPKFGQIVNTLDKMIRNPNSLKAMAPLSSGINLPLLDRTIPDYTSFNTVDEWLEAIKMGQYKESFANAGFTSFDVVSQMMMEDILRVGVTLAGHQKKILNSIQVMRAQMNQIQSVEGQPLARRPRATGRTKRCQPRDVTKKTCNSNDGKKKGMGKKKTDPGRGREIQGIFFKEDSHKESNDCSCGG
Chain of Fyn (P06241 whole entry, looked up): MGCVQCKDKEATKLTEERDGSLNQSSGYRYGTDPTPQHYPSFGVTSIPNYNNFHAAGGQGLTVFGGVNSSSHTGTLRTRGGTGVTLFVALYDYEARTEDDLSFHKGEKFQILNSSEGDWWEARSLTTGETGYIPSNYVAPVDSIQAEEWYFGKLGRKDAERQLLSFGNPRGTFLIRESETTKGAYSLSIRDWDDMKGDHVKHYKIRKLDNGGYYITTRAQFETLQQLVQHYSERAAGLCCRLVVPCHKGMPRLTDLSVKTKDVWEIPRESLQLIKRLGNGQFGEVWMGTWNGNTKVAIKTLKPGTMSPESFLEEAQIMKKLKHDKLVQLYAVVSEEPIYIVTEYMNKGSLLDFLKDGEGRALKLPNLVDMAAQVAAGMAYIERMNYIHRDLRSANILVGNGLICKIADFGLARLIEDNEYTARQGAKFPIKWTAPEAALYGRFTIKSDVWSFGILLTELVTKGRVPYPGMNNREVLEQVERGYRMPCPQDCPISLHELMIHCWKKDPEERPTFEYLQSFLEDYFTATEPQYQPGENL

Row | Sequence | phosphorylation enrichment (EPHB1) | phosphorylation enrichment (c-Abl (mouse)) | phosphorylation enrichment (Jak2) | phosphorylation enrichment (FGFR3) | phosphorylation enrichment (MERTK) | phosphorylation enrichment (FGFR1) | phosphorylation enrichment (Hck) | phosphorylation enrichment (AncSZ) | phosphorylation enrichment (Fyn) | phosphorylation enrichment (EPHB2) | phosphorylation enrichment (Fes) | phosphorylation enrichment (c-Src) | phosphorylation enrichment (Fer (mouse)) | SH2 binding enrichment (SHP2-C SH2) | SH2 binding enrichment (c-Src SH2) | SH2 binding enrichment (Grb2 SH2)
1 | LRVKMYNFLRS [ADGRG7_Y760] | 1.41 | 1.25 | 1.47 | 2.58 | 1.19 | 1.71 | 1.59 | 2.63 | 1.75 | 2.15 | 3.22 | 0.868 | 1.08 | 0.623 | 1.1 | 1.24
2 | MTYMFYRENLR [NLRP14_Y443_V441M] | 0.948 | 0.751 | 1.1 | 0.753 | 0.608 | 0.628 | 1.97 | 1.33 | 1.48 | 1 | 1.19 | 2.72 | 0.456 | 0.749 | 0.721 | 1.15
3 | GVRLYYRVRES [RB1_Y454_M457R] | 0.435 | 0.39 | 0.964 | 0.781 | 0.403 | 0.662 | 0.408 | 1.54 | 0.435 | 0.447 | 1.08 | 0.285 | 0.483 | 0.872 | 0.393 | 0.769
4 | FPMLNYKDIRK [CFAP221_Y798] | 0.292 | 0.398 | 0.469 | 0.408 | 0.431 | 0.346 | 0.441 | 0.49 | 0.493 | 0.384 | 0.628 | 0.416 | 0.362 | 0.635 | 0.516 | 0.976
5 | EPTPSYEVGQR [TSC2_Y1788_G1787S] | 0.443 | 0.627 | 0.686 | 0.581 | 0.383 | 0.462 | 0.486 | 0.726 | 0.427 | 0.426 | 0.895 | 0.428 | 0.408 | 0.738 | 0.533 | 0.827
6 | LVRPPYSYSAL [FOXI1_Y126] | 1.07 | 0.641 | 1.03 | 0.713 | 2.06 | 0.572 | 0.528 | 0.952 | 0.722 | 0.568 | 0.862 | 0.704 | 0.619 | 1.72 | 1.8 | 0.885
7 | TDGIAYEFRVT | 0.608 | 0.933 | 1.37 | 0.916 | 0.403 | 0.528 | 0.49 | 1.36 | 0.487 | 0.582 | 1.51 | 0.491 | 0.639 | 0.575 | 0.449 | 0.577
8 | VPHECYAKVFD [ALB_Y394_D389V] | 0.647 | 0.945 | 0.928 | 0.727 | 0.497 | 0.619 | 0.572 | 1.07 | 0.564 | 0.716 | 1.22 | 0.561 | 0.542 | 1.55 | 2.33 | 0.887
9 | SEPSGYQDNIA [DES_Y363_A360P] | 0.546 | 0.753 | 0.953 | 0.708 | 0.426 | 0.488 | 0.505 | 1.02 | 0.724 | 0.595 | 1.05 | 0.47 | 0.525 | 0.92 | 0.476 | 0.743
10 | KFFRVYQGQQP [MUTYH_Y494_V490F] | 0.452 | 0.652 | 0.627 | 0.78 | 0.447 | 0.592 | 0.495 | 0.898 | 0.623 | 0.507 | 0.842 | 0.457 | 0.431 | 0.596 | 0.633 | 0.953
11 | VRHRRYKHTHE [CTCF_Y343] | 0.55 | 0.816 | 0.643 | 0.603 | 0.684 | 0.743 | 0.631 | 0.759 | 0.613 | 0.622 | 0.654 | 0.788 | 0.584 | 0.714 | 0.364 | 0.665
12 | LTERDYSFVTT [ACTG2_Y199_G198D] | 2.38 | 0.888 | 1.27 | 4.74 | 1.26 | 7.67 | 1.62 | 2.56 | 1.93 | 3.51 | 1.6 | 0.977 | 2.82 | 1.37 | 0.678 | 0.792
13 | SCRENYSYSEE [LEMD3_Y258_D260Y] | 0.66 | 0.652 | 0.892 | 0.76 | 0.428 | 0.561 | 0.548 | 1.18 | 0.512 | 0.604 | 1.22 | 0.47 | 0.48 | 1.08 | 1.66 | 1.04
14 | TRSYKCLLLSM [NF1_Y491_Y491C] | 0.486 | 0.637 | 0.784 | 0.619 | 0.434 | 0.375 | 0.441 | 0.979 | 0.425 | 0.487 | 0.94 | 0.401 | 0.402 | 0.872 | 0.815 | 1.09
15 | RVFRDYVLKSA [HTATIP2_Y111_D108Y_YF] | 0.648 | 0.999 | 1.05 | 0.605 | 0.548 | 0.79 | 0.591 | 0.889 | 0.572 | 0.533 | 1.15 | 0.45 | 0.527 | 1.27 | 0.749 | 0.668
16 | GPKSTYISSAA [GOLGA5_Y62] | 0.331 | 0.488 | 0.638 | 0.51 | 0.565 | 0.414 | 0.492 | 0.731 | 0.467 | 0.506 | 0.7 | 0.508 | 0.403 | 0.52 | 0.403 | 0.715
17 | ETLLYYGYRRS [POR_Y564_C566Y] | 1.21 | 9.52 | 5.24 | 1.18 | 6.93 | 1.3 | 14.6 | 1.21 | 9.27 | 1.06 | 0.806 | 10.7 | 0.766 | 1 | 0.474 | 0.756

Row | Sequence | phosphorylation enrichment (EPHB1) | phosphorylation enrichment (c-Abl (mouse)) | phosphorylation enrichment (Jak2) | phosphorylation enrichment (FGFR3) | phosphorylation enrichment (MERTK) | phosphorylation enrichment (FGFR1) | phosphorylation enrichment (Hck) | phosphorylation enrichment (AncSZ) | phosphorylation enrichment (Fyn) | phosphorylation enrichment (EPHB2) | phosphorylation enrichment (Fes) | phosphorylation enrichment (c-Src) | phosphorylation enrichment (Fer (mouse)) | SH2 binding enrichment (SHP2-C SH2) | SH2 binding enrichment (c-Src SH2) | SH2 binding enrichment (Grb2 SH2)
18 | VITDYYVDMKF [MPP4_Y567] | 3.65 | 1.18 | 2.25 | 5.31 | 1.15 | 7.13 | 0.929 | 1.61 | 0.881 | 1.98 | 1.23 | 0.88 | 1.4 | 0.6 | 1.31 | 0.993
19 | GCKNRYDKGKP [THAP1_Y14_D17G] | 0.481 | 0.798 | 0.876 | 1.04 | 0.408 | 0.387 | 0.496 | 0.597 | 0.434 | 0.469 | 0.867 | 0.406 | 0.4 | 1.32 | 1.32 | 1.5
20 | IIWDSYTTNKV [GNB1_Y85] | 0.498 | 0.687 | 0.863 | 0.729 | 0.356 | 0.489 | 0.482 | 1.2 | 0.46 | 0.598 | 1.21 | 0.395 | 0.665 | 0.77 | 0.543 | 0.76
21 | GQDLFYEDEDL [PACS1_Y303] | 0.922 | 0.839 | 1.43 | 1.24 | 0.746 | 0.626 | 0.737 | 1.28 | 0.688 | 0.628 | 1.39 | 0.598 | 1.79 | 0.636 | 0.588 | 0.711
22 | CEAMEYQESKQ [BTK_Y511_L512Q] | 0.76 | 0.765 | 1.19 | 1.08 | 0.589 | 0.723 | 0.705 | 1.57 | 0.63 | 0.557 | 1.48 | 0.629 | 0.609 | 0.557 | 0.437 | 0.843
23 | MDDDQYALLTA [EFCAB6_Y675_T680A] | 0.547 | 0.871 | 1.15 | 1.2 | 0.592 | 1.21 | 0.77 | 1.35 | 0.647 | 0.722 | 1.35 | 0.608 | 0.665 | 0.702 | 0.689 | 0.761
24 | GDRPVYSEDEQ [CHST6_Y362_Y358D] | 0.812 | 1.06 | 1.27 | 0.872 | 0.565 | 0.667 | 0.662 | 1.54 | 0.698 | 0.702 | 1.57 | 0.673 | 0.653 | 0.639 | 0.82 | 0.992
25 | EGNERYEGFCV [GRIA3_Y451_YF] | 0.662 | 0.783 | 1.01 | 0.697 | 0.431 | 0.649 | 0.554 | 1.12 | 0.58 | 0.515 | 1.15 | 0.479 | 0.55 | 0.66 | 1.52 | 0.74
26 | GIADDYDKKKL [EIF1_Y54] | 0.456 | 0.667 | 0.845 | 0.565 | 0.383 | 0.465 | 0.512 | 0.882 | 0.467 | 0.565 | 0.943 | 0.377 | 0.4 | 0.496 | 0.452 | 0.931
27 | GYCSWYRGWAP [TIMP3_Y195] | 0.8 | 1.04 | 1.32 | 1 | 0.975 | 0.807 | 1.25 | 1.38 | 0.671 | 0.712 | 1.53 | 1.33 | 0.691 | 0.715 | 0.502 | 0.655
28 | RIAFQYGDTDL [MYBPC3_Y340_V342D] | 0.743 | 0.735 | 0.784 | 0.737 | 0.544 | 0.703 | 0.432 | 1.1 | 0.81 | 0.825 | 1.24 | 0.381 | 0.689 | 0.742 | 0.577 | 0.954
29 | NDHHVYLEGTL [ALDOB_Y223] | 0.494 | 0.555 | 0.662 | 0.578 | 0.435 | 0.494 | 0.53 | 0.718 | 0.468 | 0.509 | 0.756 | 0.421 | 0.46 | 0.646 | 1.72 | 0.995
30 | LPKVSYVKAID [GLRA1_Y307] | 0.402 | 0.444 | 0.563 | 0.433 | 0.542 | 0.423 | 0.434 | 0.629 | 0.391 | 0.411 | 0.652 | 0.338 | 0.34 | 0.768 | 0.459 | 0.868
31 | EWKNNCPRLRE [OPA1_Y582_Y582C] | 0.492 | 0.592 | 0.81 | 0.654 | 0.415 | 0.508 | 0.472 | 0.9 | 0.395 | 0.582 | 1.13 | 0.411 | 0.433 | 0.571 | 0.562 | 0.916
32 | PVPKTYDMLKA [PKP2_Y108] | 1.2 | 1.01 | 1.92 | 0.707 | 0.648 | 0.766 | 1.46 | 1.07 | 0.764 | 0.541 | 1.02 | 0.861 | 0.577 | 0.695 | 1.39 | 0.806
33 | GTFEDYVEGLR [MYL6_Y89_YF] | 0.534 | 0.688 | 0.971 | 0.685 | 0.461 | 0.545 | 0.508 | 1.08 | 0.427 | 0.534 | 1.11 | 0.416 | 0.454 | 0.553 | 0.5 | 0.9
